The values below come from patent US20240209106A1 (BEIGENE SWITZERLAND, published 2024).

Substitutions are numbered along the chain they refer to. Names may count otherwise. Like-named read-outs stand apart in the source and are kept apart here.

Assay [1] has as its target T1, full-length human CD137 (huCD137) (human, UniProt Q07011 24-255).
T1 construct: On transduced Hut78 cells (Hut78/huCD137), transiently on HEK293 cells, or natively on PBMC/T cells; also called TNFRSF9; 4-1BB
The experiment in a line: flow cytometry on Hut78/huCD137 cells. For orientation: Flow cytometry measures light scatter and fluorescence of single cells or particles in a stream.

The target of assay [2] is human CD137 ECD-mIgG2a (human). The experiment in a line: SPR, antibody captured on anti-human Fc surface; analyte taken as human CD137 ECD-mIgG2a.
Assay [3] addresses human CD137 ECD-mIgG2a (human). The experiment in a line: SPR, human CD137 ECD-mIgG2a. (In general: Surface plasmon resonance follows binding to a sensor surface in real time, without labels.)
In assay [4] the target is T1, full-length human CD137 (huCD137). The experiment in a line: flow cytometry on Hut78/huCD137 cells. The source holds these as a separate data set.
The target in assay [5] is T2, human CEA on cells (human, UniProt P06731 35-685).
T2 construct: whole, on cells; also called CT26/CEA; MKN45
T2 sequence (looked up): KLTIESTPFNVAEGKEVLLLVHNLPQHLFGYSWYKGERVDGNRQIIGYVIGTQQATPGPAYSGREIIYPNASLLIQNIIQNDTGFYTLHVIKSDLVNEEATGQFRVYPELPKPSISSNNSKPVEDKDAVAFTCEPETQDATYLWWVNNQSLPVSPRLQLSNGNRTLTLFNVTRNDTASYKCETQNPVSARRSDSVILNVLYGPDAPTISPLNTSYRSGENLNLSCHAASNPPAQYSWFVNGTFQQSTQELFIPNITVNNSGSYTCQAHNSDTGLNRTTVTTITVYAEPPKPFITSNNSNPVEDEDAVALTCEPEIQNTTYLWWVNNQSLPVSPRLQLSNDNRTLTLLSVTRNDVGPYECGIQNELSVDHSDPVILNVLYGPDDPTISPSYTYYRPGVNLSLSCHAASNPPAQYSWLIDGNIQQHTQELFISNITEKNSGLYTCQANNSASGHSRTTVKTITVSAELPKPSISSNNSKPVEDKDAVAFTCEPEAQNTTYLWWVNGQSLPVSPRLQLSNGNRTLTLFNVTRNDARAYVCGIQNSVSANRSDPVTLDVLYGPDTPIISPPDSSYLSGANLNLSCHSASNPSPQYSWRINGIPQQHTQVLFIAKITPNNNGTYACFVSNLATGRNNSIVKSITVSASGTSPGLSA
The experiment in a line: flow cytometry on CT26/CEA cells.

Assay [6] deals with human CD137 ECD-mIgG2a (human). The experiment in a line: SPR (BIAcore T-200): antibody captured on anti-human IgG (Fc) CM5 chip, human CD137 ECD-mIgG2a as analyte, 1:1 Langmuir fit.
Method: Characterization of anti-huCD137 VH domain antibodies were made by SPR assays using BIAcore™ T-200 (GE Life Sciences). Briefly, anti-human IgG (Fc) antibody was immobilized on an activated CM5 biosensor chip (Cat.: BR100839, GE Life Sciences). Anti-huCD137 domain antibodies were flowed over the chip surface and captured by anti-human IgG (Fc) antibody. […] The equilibrium dissociation constant (KD) was calculated as the ratio koff/kₒₙ.
Assay [7] deals with T2, human CEA on cells. The experiment in a line: flow cytometry on CT26/CEA cells. The source holds these as a separate data set.
From the text: (§1) Cell fluorescence was quantified using a flow cytometer (Guava easyCyte™ 8HT, Merck-Millipore, USA).
The target in assay [8] is T1, full-length human CD137 (huCD137). The experiment in a line: flow cytometry on Hut78/huCD137 cells. The source holds these as a separate data set.
From the text: as §1
For assay [9] the target is unchanged. The experiment in a line: cell-based or functional assay.
Assay [10] deals with human CD137 ECD-mIgG2a (human). The experiment in a line: SPR, multispecific antibody captured on anti-human IgG Fc chip, human CD137 ECD-mIgG2a flowed over.
Method: Briefly, anti-human IgG (Fc) antibody was immobilized on an activated CM5 biosensor chip (Cat.: BR100839, GE Life Sciences). Anti-huCD137 monoclonal antibodies or multispecific antibodies were flown through the chip surface and captured by anti-human IgG (Fc) antibody. […] The equilibrium dissociation constant (KD)) was calculated as the ratio koff/kₒₙ.
The target in assay [11] is T1, full-length human CD137 (huCD137). The experiment in a line: cell-based or functional assay. This is another data set of the same source.
The target of assay [12] is human CD137 ECD-mIgG2a (human). The experiment in a line: ELISA on coated human CD137-ECD-mIgG2a with supernatant containing the CH3 fusion [panel B]. On the technique in general: In an ELISA, binding on a coated surface is turned into a signal by an enzyme label.

T1 sequence (Q07011 24-255 limits assumed): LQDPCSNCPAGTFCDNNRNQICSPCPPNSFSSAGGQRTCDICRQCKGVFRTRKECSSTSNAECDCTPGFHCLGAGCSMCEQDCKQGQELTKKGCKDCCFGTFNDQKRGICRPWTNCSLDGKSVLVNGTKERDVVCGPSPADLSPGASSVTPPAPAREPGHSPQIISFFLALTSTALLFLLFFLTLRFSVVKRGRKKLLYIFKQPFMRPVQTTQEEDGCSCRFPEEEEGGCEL
Sequence of human CD137 ECD-mIgG2a (human) (chain, as listed by the source limits assumed): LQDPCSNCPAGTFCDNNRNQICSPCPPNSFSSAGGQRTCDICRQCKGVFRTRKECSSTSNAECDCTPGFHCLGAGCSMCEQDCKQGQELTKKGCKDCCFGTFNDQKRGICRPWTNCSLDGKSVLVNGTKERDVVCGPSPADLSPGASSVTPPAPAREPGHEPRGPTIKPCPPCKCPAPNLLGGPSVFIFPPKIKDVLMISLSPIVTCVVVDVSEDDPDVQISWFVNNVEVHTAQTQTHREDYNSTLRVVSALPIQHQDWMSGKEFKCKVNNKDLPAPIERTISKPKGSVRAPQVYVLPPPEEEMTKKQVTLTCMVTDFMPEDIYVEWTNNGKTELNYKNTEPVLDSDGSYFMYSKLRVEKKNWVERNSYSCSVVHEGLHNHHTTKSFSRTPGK

B1: A-CD137×CEA-M5 (bispecific antibody)
heavy: QVQLVQSGAEVKKPGASVKVSCKASGYIFTSYYLHWVRQAPGQGLEWIGYINPQTGKTSYAQKFQGRVTMTRDTSTSTVYMELSSLRSEDTAVYYCAREYGNYNYPLDYWGQGTLVTVSSASTKGPSVFPLAPSSKSTSGGTAALGCLVKDYFPEPVTVSWNSGALTSGVHTFPAVLQSSGLYSLSSVVTVPSSSLGTQTYICNVNHKPSNTKVDKKVEPKSCDKTHTCPPCPAPPAAGPSVFLFPPKPKDTLMISRTPEVTCVVVDVSHEDPEVKFNWYVDGVEVHNAKTKPREEQYNSTYRVVSVLTVLHQDWLNGKEYKCKVSNKALAAPIEKTISKAKGQPREPQVYTLPPSREEMTKNQVSLTCLVKGFYPSDIAVEWESNGQPENNYKTTPPVLDSDGSFFLYSKLTVDKSRWQQGNVFSCSVMHEALHNHYTQKSLSLSPGKGGGGSEVQLLESGGGLVQPGGSLRLSCAASGFTLSAEDMGWVRQAPGKGLEWVSAILDFGGSTYYADSVKGRFTISRDNAKNTLYLQMSSLRAEDTAVYYCARVVYHAGGGVTFDYWGQGTLVTVSS
light: DIQMTQSPSSLSASVGDRVTITCRASENQYGYLAWYQQKPGKVPKLLIYNYKNLVEGVPSRFSGSGSGTDFTLTISSLQPEDVATYYCQHHLGTPYTFGQGTKVEIKRTVAAPSVFIFPPSDEQLKSGTASVVCLLNNFYPREAKVQWKVDNALQSGNSQESVTEQDSKDSTYSLSSTLTLSKADYEKHKVYACEVTHQGLSSPVTKSFNRGEC
notes: V35M as printed
A word on the EC50 (read off the curve): it is the concentration giving half of the maximal effect. One may read the Kd as a measure of binding affinity in units of concentration. Higher therefore signals lower affinity. As a reminder, the koff is the rate constant with which the complex falls apart. A lower koff goes with slow dissociation. What is called kon is the rate constant with which the complex forms. For B1, the “EC50 (read off the curve)” value in [1] was around 2 µg/mL. In assay [2], this molecule displayed a Kd of 646 nM, a koff of 0.00574 s⁻¹ and a kon of 8890 M⁻¹ s⁻¹.

B2: D-CD137×CEA (bispecific antibody, human IgG1, kappa)
heavy: EVQLLESGGGLVQPGGSLRLSCAASGFMLSAEDVGWVRQAPGKGLEWVSAILDFGGSTYYADSVKGRFTISRDNSKNTLYLQMNSLRAEDTAVYYCARVVYHAGGGVTFDYWGQGTLVTVSSSGGGGSQVQLVQSGAEVKKPGASVKVSCKASGYIFTSYYLHWVRQAPGQGLEWIGYINPQTGKTSYAQKFQGRVTMTRDTSTSTVYMELSSLRSEDTAVYYCAREYGNYNYPLDYWGQGTLVTVSSASTKGPSVFPLAPSSKSTSGGTAALGCLVKDYFPEPVTVSWNSGALTSGVHTFPAVLQSSGLYSLSSVVTVPSSSLGTQTYICNVNHKPSNTKVDKKVEPKSCDKTHTCPPCPAPPAAGPSVFLFPPKPKDTLMISRTPEVTCVVVDVSHEDPEVKFNWYVDGVEVHNAKTKPREEQYNSTYRVVSVLTVLHQDWLNGKEYKCKVSNKALAAPIEKTISKAKGQPREPQVYTLPPSREEMTKNQVSLTCLVKGFYPSDIAVEWESNGQPENNYKTTPPVLDSDGSFFLYSKLTVDKSRWQQGNVFSCSVMHEALHNHYTQKSLSLSPGK
light: B1 light
notes: Symmetric IgG-like; also called Format D
The EC50 is the concentration at which the effect is half-maximal. B2 showed a Kd in [3] of 78 nM. In addition, the results for the EC50 in assay [4] and in [5] were 2.28 µg/mL and 3.78 µg/mL, respectively.

B3: Format A - BGA-9442 (bispecific antibody, human IgG1, kappa)
heavy: B1 heavy with L483I, M488V, F508S, D516E, V553Y, Y565L, W566R, L571Q
light: B1 light
notes: Light chain by the description of Format A
In assay [6], B3 showed an equilibrium dissociation constant (Kd) of 151 nM, a koff of 0.00604 s⁻¹ and a kon of 39900 M⁻¹ s⁻¹. The molecule further had a concentration for a half-maximal effect (EC50) in assay [7] of 0.5 µg/mL. The molecule further had an EC50 in [8] of 0.5 µg/mL. For the same molecule, in assay [9], the “Functions EC50(ug/ml), PBMC based cytokine release assay” value (“Functions EC50(ug/ml)” below) stood at 0.233 µg/mL and the “Functions Top, PBMC based cytokine release assay” value (shortened to “Functions Top”) turned out to be 1720. In assay [10], this molecule showed a Kd of 164 nM.

B4: Format A - BGA-3386 (bispecific antibody, human IgG1, kappa)
heavy: B1 heavy with L483V, M488V, F508K, D516E, V553I, Y565T
light: B1 light
notes: as for B3
In the case of B4, in [6], the Kd amounted to 21.4 nM, the koff amounted to 0.000953 s⁻¹ and the kon is 44600 M⁻¹ s⁻¹. The same molecule yielded an EC50 in assay [7] of 0.21 µg/mL. In addition, in assay [8], the midpoint of the response, the EC50, lay at 0.21 µg/mL. Moreover, in [9], the “Functions EC50(ug/ml)” value was found to be 0.0768 µg/mL and the “Functions Top” value was 1950. In [10], this molecule gave a Kd of 21.4 nM.

B5: A-CD137×CEA-M7 (bispecific antibody, human IgG1, kappa)
heavy: B1 heavy with M488V
light: B1 light
Take B5: the “EC50 (read off the curve)” value in assay [1] is around 0.1 µg/mL. Moreover, in assay [2], the Kd was 266 nM, the koff is 0.003 s⁻¹ and the on-rate constant (kon) turned out to be 11300 M⁻¹ s⁻¹.

B6: A-CD137×CEA-M6 (bispecific antibody)
heavy: B1 heavy with F481R
light: B1 light
notes: V35M as printed
B6: in assay [1], the “EC50 (read off the curve)” value is around 2 µg/mL. In [2], this molecule had a Kd of 767 nM, a koff of 0.0114 s⁻¹ and a kon of 14800 M⁻¹ s⁻¹.

B7: A-CD137×CEA-M8 (bispecific antibody, human IgG1, kappa)
heavy: B1 heavy with F481R, M488V
light: B1 light
In the case of B7, the “EC50 (read off the curve)” value in [1] is around 0.5 µg/mL. In assay [2], this molecule yielded a Kd of 184 nM, a koff of 0.0534 s⁻¹ and a kon of 290000 M⁻¹ s⁻¹.

B8: Format A-BGA-5623 (bispecific antibody, human IgG1, kappa)
heavy: B1 heavy with L483V, M488V, F508K, D516E, V553I, Y565T, W566R, L571Q
light: B1 light
notes: Module ratio 2:2, inert Fc
As to B8, in assay [6], the Kd stood at 111 nM, the koff was found to be 0.0029 s⁻¹ and the kon turned out to be 26100 M⁻¹ s⁻¹. This molecule also showed a concentration for a half-maximal effect (EC50) in assay [8] of 0.38 µg/mL. Moreover, in assay [9], the “Functions EC50(ug/ml)” value was 0.341 µg/mL and the “Functions Top” value worked out at 2510. For the same molecule, the “Functional assay EC50 (ug/ml), in vitro CD137 activation (PBMC cytokine release)” value in [11] is 0.31 µg/mL. Further, the Kd in [10] worked out at 94.8 nM.

B9: CH3-BGA-4712-M3 (other)
chain: GQPREPQVYTLPPSREEMTKNQVSLTCLVKGFYPSDIAVEWESNGQPENNYKTTPPVLDSDGSFFLYSKLTVDKSRWQQGNVFSCSVMHEALHNHYTQKSLSLSPGKGGGGSEVQLLESGGGLVQPGGSLRLSCAASGFTLSAEDVGWVRQAPGKGLEWVSAILDFGGSTYYAESVKGRFTISRDNAKNTLYLQMSSLRAEDTAVYYCARVVYHAGGGVTFDYWGQGTLVTVSS
notes: Tested as bacterial supernatant; expressed as a dimer of CH3 fusion proteins from the phagemid; also called CH3 fusion of anti-huCD137 VH domain antibody
As for B9, the binding result in [12] is on record as “binds”.

B10: CH3-BGA-4712-M3 with W47G mutation in VH region (other)
chain: B9 chain with W159G
notes: built from pieces so that position 47 counts on the VH
For the molecule B10, the binding result in assay [12] is recorded as “no binding”.

B11: CH3-BGA-4712-M3 with W47Y mutation in VH region (other)
chain: B9 chain with W159Y
On to B11, for which, in [12], the binding result is reported as “no binding”.

B12: CH3-BGA-4712-M3 with W47F mutation in VH region (other)
chain: B9 chain with W159F
Turning to B12, the binding result in assay [12] is given as “no binding”.
